According to patent publication US20250066422A1 (published 2025):

biological target: T1, HLA-A*0201 (human); assay: UV-ligand exchange, streptavidin/anti-b2m sandwich ELISA
T1 construct: MHC monomer first loaded with a UV-sensitive peptide that is cleaved and exchanged for the test peptide; captured on streptavidin; also called peptide-receptive MHC molecules
Source text: Candidate peptides for the vaccines according to the present invention were further tested for immunogenicity by in vitro priming assays. The individual peptide-MHC complexes required for these assays were produced by UV-ligand exchange, where a UV-sensitive peptide is cleaved upon UV-irradiation, and exchanged with the peptide of interest as analyzed. Only peptide candidates that can effectively bind and stabilize the peptide-receptive MHC molecules prevent dissociation of the MHC complexes. To determine the yield of the exchange reaction, an ELISA was performed based on the detection of the light chain (β2m) of stabilized MHC complexes.
96 well MAXISorp plates (NUNC) were coated over night with 2ug/ml streptavidin in PBS at room temperature, washed 4× and blocked for 30 min at 37° C. in 2% BSA containing blocking buffer. Refolded HLAA*0201/MLA-001 monomers served as standards, covering the range of 8-500 ng/ml. Peptide-MHC monomers of the UV-exchange reaction were diluted 100 fold in blocking buffer. Samples were incubated for 1 h at 37° C., washed four times, incubated with 2ug/ml HRP conjugated anti-β2m for 1 h at 37° C., washed again and detected with TMB solution that is stopped with […]. Absorption was measured at 450 nm.

| Binder | Average exchange yield in % |
| --- | --- |
| TLWYRAPEV (synthetic peptide from CDK4/CDK6) [CDK4-001] | 45% |
| VLFPNLKTV (synthetic peptide from BNC1) [BNC1-001] | 43% |
| SLFGNSGILENV (synthetic peptide from CEP192) [CEP192-001] | 56% |
| AVVEFLTSV (synthetic peptide from DROSHA) [DROSHA-001] | 68% |
| AIMGFIGFFV (synthetic peptide from SEC61G) [SEC61G-001] | 18% |
| GVLENIFGV (synthetic peptide from PCNXL3) [PCNXL3-001] | 87% |
| YLIHFPVSV (synthetic peptide from AKR1C1, AKR1C2) [AKR-001] | 13% |
| KLVEFDFLGA (synthetic peptide from TACC3) [TACC3-001] | 54% |
| ALMDKEGLTAL (synthetic peptide from TANC2) [TANC2-001] | 71% |
| SLYKGLLSV (synthetic peptide from RAD54B) [RAD54B-001] | 48% |
| RLLGPSAAADILQL (synthetic peptide from HUWE1) [HUWE1-001] | 45% |
| FLVDGSWSV (synthetic peptide from COL12A1) [COL12A1-002] | 55% |
| ALFPHLLQPV (synthetic peptide from CSE1L) [CSE1-001] | 55% |
| KILEDVVGV (synthetic peptide from TPX2) [TPX2-001] | 56% |
| RLLDSVSRL (synthetic peptide from LAMC2) [LAMC2-001] | 61% |
| ALLRTVVSV (synthetic peptide from GALNT2) [GALNT2-001] | 73% |
